Structures can show the parent of a compound that is named as a salt.
Legend:
[1] = test system: BKS.Cg-Dock7m mice; assay: Body weight loss in diabetic obese mice; assay type: in vivo
Description: (§1) BKS.Cg-Dock7m mice were treated with control and an Amylase compound according to an embodiment of the present invention. In the absence of treatment, the BKS.Cg-Dock7m mice are homozygous for the diabetes spontaneous mutation (Lepr^db) and become obese at approximately three to four weeks of age. […] At the beginning of the animal trial, the test animals were obese, severely hyperinsulemic and hyperglycemic. After 28 consecutive days of dosing, the animals were euthanized and tissue analyzed. Compounds described herein were tested against the positive control of Metformin hydrochloride (“Metformin”)
(§2) Animals were manually restrained and administered Metformin by oral gavage using a disposable gavage needle. The target dose was 5 mL/kg, and actual dose volumes ranged from 190 to 260 μL/animal.
(§3) Amylase was purchased from Abcam (product ID: ab77861) at a dilution of 340 Units/mL. Each animal was treated with Amylase to achieve a dilution of 80 Units/L of blood. The test compound was diluted in phosphate buffer saline (PBS) and each day the test animals were injected with 300 uL of the Amylase-PBS solution. For every 299.4 uL of PBS, 0.6 uL of Amylase was used to achieve a concentration of 80 Units/Liter assuming a body weight of 45 g. The aliquots were stored at −80 C.
Amylase was purchased from Abcam (product ID: ab77861) at a dilution of 340 Units/mL. Each animal was treated with Amylase to achieve a dilution of 240 Units/L of blood. The test compound was diluted in phosphate buffer saline (PBS) and each day the test animals were injected with 300 uL of the Amylase-PBS solution. For every 298.3 uL of PBS, 1.7 uL of Amylase was used to achieve a concentration of […] assuming a body weight of 45 g. The aliquots were stored at −80 degrees C.
(§4) 1× (used synonymously with TV1) and 3× (used synonymously with TV2) doses of human alpha-Amylase enzyme (referred to herein as Test Compound 1) were determined to be 80 Units/Liter of blood volume and 240 Units/Liter of blood volume respectively. Animals were manually restrained and administered a target volume of 300 μL of phosphate buffered saline (PBS) (vehicle), by IP injection, once per day, on Days 1-28. Actual dose volumes changed throughout the study and ranged from 300 to 310 μL. Endpoints include daily clinical observations and body weights. Creatinine, insulin, Protein Urea/Creatinine levels, clinical pathology and gross pathology at necropsy were also obtained. The mice were euthanized and necropsied on Day 28.
Body weights were measured prior to the study for randomization. Additional weekly body weights were collected throughout the study. We also were interested in weight loss for the animals for various treatment regimens. Referring now to Table 1 weight loss data as a percent weight loss with the reference being the weight before any treatment is illustrated for each test group. […] As with the insulin data, there is a dose dependent trend between 1× and 3×. The higher dose of Test Compound 1 outperforms metformin.

[2] = test system: BKS.Cg-Dock7m mice; assay: Urine Protein Urea/Creatinine ratio; assay type: in vivo; conditions: for Nephroprotective effect: from Protein Urea to Creatinine ratio
Description: as §1, §4
Referring now to FIG. 11, Protein Urea/Creatinine Levels are measured and shown. Creatinine levels are directly related to muscle mass in mice and so higher Creatinine is correlated with higher muscle mass. A healthy Protein Urea to Creatinine level is 1. Higher levels imply kidney damage. […] Optimal Protein Urea: Creatinine is 1.

[3] = test system: BKS.Cg-Dock7m mice; assay: Serum insulin ELISA in diabetic obese mice after 28 days of dosing; assay type: in vivo; conditions: for Serum insulin levels compared to vehicle control: at necropsy after 28 consecutive days, Test Compound 1 at 1× or 3× IP, Metformin oral gavage
Description: as §1, §2, §3
Amylase was purchased from Abcam (product ID: ab77861) at a dilution of 340 Units/mL. Each animal was treated with Amylase to achieve a dilution of 240 Units/L of blood. […]
1× (used synonymously with TV1) and 3× (used synonymously with TV2) doses of human alpha-Amylase enzyme (referred to herein as Test Compound 1) were determined to be 80 Units/Liter of blood volume and 240 Units/Liter of blood volume respectively. […]
Referring now to FIG. 9, insulin values were measured in serum from four animals from each treatment group at the time of necropsy following 28 consecutive days of dosing with Control (metformin), Test Compound 1 (SEQ ID NO 1), or vehicle alone. […] The processed plates were read using a Molecular Devices VersaMax plate reader.

[4] = test system: Mast cells; assay: Histamine ELISA of IgE/anti-IgE-induced mast cell degranulation; assay type: cell-based; conditions: for Histamine release (ELISA): 1× (100 Units/L) and 10× (1000 Units/L) Amylase, IgE + anti-IgE
Description: Referring now to FIG. 1, Mast cells were treated with IgE, anti-IgE and varying doses of alpha-Amylase in a medium that would permit binding. In this experiment, Mast cells were grown to confluence, harvested and resuspended in 8 ml PBS and a 3 ml aliquot was plated in triplicate. 0.29 ml (100 Units) of Amylase was added to 0.7 mL PBS bringing the total volume to 1 mL. 3 μL was used in the 1× Amylase dose and 30 μL was used in the 10× Amylase dose. 1 set of triplicates was incubated with 1× Amylase (100 Units/L) and the second set with 10× Amylase (1000 Units/L). After 10 minutes, 250 μL of IgE was added, and then 200 μL of anti-IgE. The cells were incubated at 37 degrees Celsius during this time. 50 μL was taken at 1 hour, 2.5 hours and 4 hours and subjected to histamine level analysis via ELISA. A control set was co-incubated with PBS.
Anti-IgE when added to IgE-incubated Mast cells causes degranulation. Histamine release occurs during degranulation. Measurements were taken from all three subsets at 1 hour, 2.5 hours and 4 hours and subjected to analysis of histamine levels by ELISA from Oxford Biolabs. FIG. 1 is a graph of the results of an ELISA in which histamine levels are measured. Higher absorbance rates correlate to lower levels of Histamine.
Degranulation based upon the Immunoglobulin-E (IgE)-Anti-IgE reaction is well documented in the literature. Histamine levels were detected by an ELISA kit and served as a marker for degranulation. […] This implies that cellular degranulation was prevented in a time and dose-dependent manner by the addition of Amylase.

[5] = test system: BKS.Cg-Dock7m mice; assay: Urine creatinine vs percentage of total weight loss; assay type: in vivo; conditions: 1× dose
Description: as §1
1× (used synonymously with TV1) and 3× (used synonymously with TV2) doses of human alpha-Amylase enzyme (referred to herein as Test Compound 1) were determined to be 80 Units/Liter of blood volume and 240 Units/Liter of blood volume respectively. Animals were manually restrained and administered a target volume of 300 μL of phosphate buffered saline (PBS) (vehicle), by IP injection, once per day, on Days 1-28. Actual dose volumes changed throughout the study and ranged from 300 to 310 μL. Endpoints include daily clinical observations and body weights. […]
The source of the weight loss, (whether fat or muscle) is physiologically critical. […] Referring now to FIG. 10, to quantify the source of the weight loss, we examined urine creatinine levels in the test animals. […]

[6] = test system: IgE; assay: Co-immunoprecipitation of Amylase and IgE; assay type: binding
Description: Referring now to FIG. 3, an immunoblot is shown having samples in lanes 1-8. The samples are prepared as follows. 10 μg of Amylase was mixed with 1 μg of IgE and incubated overnight at 4° C. and then for one hour at 37° C. Anti-Amylase antibody was used for immunoprecipitation. Anti-IgE antibody was used for immunoblotting. BSA was used as a competitive binding control. A sample with no IgE and […] of BSA+10 microgram of Amylase (lane 2) was used as negative control for immunoblotting. (Lanes 3 and 4 represent 0.5 μg BSA, lanes 5 and 6 represent 0.5 μg BSA and lanes 7 and 8 represent 0.05 μg BSA). After immunoprecipitation, pellets were dissolved in 45 microliters of Laemmli sample buffer and 15 microliters were loaded on the gel. 1 microgram of IgE was used as positive control (lane 1).
Referring now to FIG. 2, an immunoblot is shown having samples in lanes 1-8. The samples are prepared as follows.

[7] = Metformin positive control, oral gavage
[8] = 1X dose (80 Units/Liter of blood volume) IP daily
[9] = 3X dose (240 Units/Liter of blood volume) IP daily

CN(C)C(=N)N=C(N)N [Metformin, Metformin hydrochloride, reference compound]
Body Weight % Lost, % Weight loss n = 4 [1, 7]: 7%
Body Weight % Lost, % Weight loss n = 6 [1, 7]: 6.9%
Body Weight % Lost, % Weight loss raw [1, 7]: 7.4%
Nephroprotective effect [2]: nephroprotective
Serum insulin levels compared to vehicle control [3]: moderate decreases in serum insulin levels compared to vehicle control animals

B1: Test Compound 1: human alpha-Amylase enzyme (SEQ ID NO 1, pancreatic Amylase alpha 2A), purchased from Abcam (product ID: ab77861) (protein)
chain: QYSPNTQQGRTSIVHLFEWRWVDIALECERYLAPKGFGGVQVSPPNENVAIYNPFRPWWERYQPVSYKLCTRSGNEDEFRNMVTRCNNVGVRIYVDAVINHMCGNAVSAGTSSTCGSYFNPGSRDFPAVPYSGWDFNDGKCKTGSGDIENYNDATQVRDCRLTGLLDLALEKDYVRSKIAEYMNHLIDIGVAGFRLDASKHMWPGDIKAILDKLHNLNSNWFPAGSKPFIYQEVIDLGGEPIKSSDYFGNGRVTEFKYGAKLGTVIRKWNGEKMSYLKNWGEGWGFVPSDRALVFVDNHDNQRGHGAGGASILTFWDARLYKMAVGFMLAHPYGFTRVMSSYRWPRQFQNGNDVNDWVGPPNNNGVIKEVTINPDTTCGNDWVCEHRWRQIRNMVIFRNVVDGQPFTNWYDNGSNQVAFGRGNRGFIVFNNDDWSFSLTLQTGLPAGTYCDVISGDKINGNCTGIKIYVSDDGKAHFSISNSAEDPFIAIHAESKL
modifications: homo sapien
Body Weight % Lost, % Weight loss n = 4 [1, 8]: 5%
Body Weight % Lost, % Weight loss n = 6 [1, 8]: 5.2%
Body Weight % Lost, % Weight loss raw [1, 8]: 5.5%
Weight loss compared with metformin ([1]; 1× and 3× doses): dose-dependency in weight loss with our 1× of Test Compound 1 and 3× of Test Compound 1 doses outperforming metformin
Body Weight % Lost, % Weight loss n = 4 [1, 9]: 10%
Body Weight % Lost, % Weight loss n = 6 [1, 9]: 8.3%
Body Weight % Lost, % Weight loss raw [1, 9]: 7.4%
Histamine release (ELISA) ([4]; 1 hour, vs PBS control): the levels of Histamine released in the 1× and 10× doses were the same, with higher release in the negative control
Histamine release (ELISA) ([4]; 2.5 hours): dose dependency with less histamine release compared to 1 hour
Histamine release (ELISA) ([4]; 4 hours): greater histamine release in the 1× and 10× doses
Histamine levels as marker for degranulation ([4]; overall, samples treated with Amylase, 1 to 4 hours, 1× and 10×): lower in a manner that was both time and dose dependent
Source of the weight loss (fat or muscle) from urine creatinine [5]: the majority of weight lost is fat content and muscle mass is preserved
Nephroprotective effect [2]: nephroprotective
Protein Urea to Creatinine ratio in urine ([2]; treatment group 2 (1× dose) vs group 4 (metformin) and group 1 (vehicle)): lower Protein Urea to Creatinine ratio compared to urine from animals in treatment group 4 or animals in treatment group 1
Change in insulin levels ([3]; Treatment Group 3: 3× dose (240 Units/liter of blood volume) IP, 28 days): did exhibit a change in insulin levels
Serum insulin levels compared to vehicle control [3]: moderate decreases in serum insulin levels compared to vehicle control animals
Amylase co-immunoprecipitation with IgE ([6]; 1 μg IgE + 0.5, 5, 10 μg Amylase, anti-IgE immunoprecipitation, anti-Amylase immunoblot): binding of Amylase and IgE was observed to behave in a dose-dependent manner
IgE co-immunoprecipitation with Amylase ([6]; 10 μg Amylase + 1 μg IgE, anti-Amylase immunoprecipitation, anti-IgE immunoblot, BSA as competitive binding control): IgE immunoprecipitated with Amylase under conditions of increasing concentrations of BSA, demonstrating little non-specific binding
